Data published in the supplement of paper PMC7877785.
± gives the uncertainty stated by the source.

Test: self-splicing fitness, log relative to wild type (ln ratio); higher = more splicing; Tetrahymena group I intron in knt gene, E. coli kanamycin selection, DiMSum; sequences stand for … in CUCUCU…GGAGGGAAAAGUUAUCAGGCAUGCACCUGGUAGCUAGUCUUUAAACCAAUAGAUUGCAUCGGUUUAAAAGGCAAGACCGUCAAAUUGCGGGAAAGGGGUCAACAGCCGUUCAGUACCAAGUCUCAGGGGAAACUUUGAGAUGGCCUUGCAAAGGGUAUGGUAAUAAGCUGACGGACAUGGUCCUAACCACGCAGCCAAGUCCUAAGUCAACAGAUCUUCUGUUGAUAUGGAUGCAGUUCACAGACUAAAUGUCGGUCGGGGAAGAUGUAUUCUUCUCAUAAGAUAUAGUCGGACCUCUCCUUAAUGGGAGCUAGCGGAUGAAGUGAUGCAACACUGGAGCCGCUGGGAACUAAUUUGUAUGCGAAAGUAUAUUGAUUAGUUUUGGAGUACUCGUGGUCG
Outline: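 DiMSum derived fitness as the error-weighted combination of fold changes across replicates, kanamycin versus no kanamycin, normalised to wild type. E. coli BL21(DE3) held the library, which randomised all eight P1ex-region intron nucleotides within the knt kanamycin-resistance gene on pET-22b(+). Six replicate transformations grew overnight at 37°C or 30°C on LB agar with or without 25 μg/mL kanamycin, also containing 100 μg/mL carbenicillin, 50 μM IPTG and 0.2% rhamnose, and pooled colonies were amplicon-sequenced on an Illumina HiSeq 2500.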

Row | Sequence | self-splicing fitness (ln) (30 °C) | self-splicing fitness (ln) (37 °C)
1 | AUCUAGCAAUAUUACGUAAG | -2.37 ± 0.12 | -1.16 ± 0.15
2 | UCAAAGCAAUAUUACGUACC | -3.01 ± 0.3 | -1.69 ± 0.3
3 | AACCAGCAAUAUUACGAAUC | -1.65 ± 0.094 | -0.882 ± 0.1
4 | CACCAGCAAUAUUACGAUUG | -0.914 ± 0.046 | -0.088 ± 0.072
5 | GGCUAGCAAUAUUACGGGCA | 0.122 ± 0.082 | 0.0658 ± 0.092
6 | GAGUAGCAAUAUUACGACCC | 0.0573 ± 0.39 | –
7 | UGGCAGCAAUAUUACGGGAA | -2.17 ± 0.13 | -0.784 ± 0.1
8 | GCAAAGCAAUAUUACGGGCG | -0.534 ± 0.079 | -0.696 ± 0.11
9 | CGUCAGCAAUAUUACGGUCG | -2.52 ± 0.11 | -2 ± 0.15
10 | CUUCAGCAAUAUUACGGAAU | -1.46 ± 0.13 | -1.17 ± 0.14
11 | GUGAAGCAAUAUUACGGGUU | -1.67 ± 0.069 | -1.4 ± 0.1
12 | CAAAAGCAAUAUUACGCGCU | -3.18 ± 0.14 | -0.642 ± 0.1
13 | CGAAAGCAAUAUUACGUAGG | -0.721 ± 0.067 | -0.28 ± 0.096
14 | GCUAAGCAAUAUUACGCUCG | -0.473 ± 0.094 | -0.832 ± 0.13
15 | CAUCAGCAAUAUUACGGGGC | -4 ± 0.16 | -2.01 ± 0.15
16 | ACUAAGCAAUAUUACGGUUG | -3.25 ± 0.2 | -2.5 ± 0.21
17 | AUGUAGCAAUAUUACGCCAC | -3.49 ± 0.36 | –
18 | GCAUAGCAAUAUUACGUCCA | -1.49 ± 0.21 | -0.447 ± 0.18
19 | AAGGAGCAAUAUUACGGCCG | -1.99 ± 0.45 | –
20 | GGGGAGCAAUAUUACGCCUG | -2.33 ± 0.15 | -0.491 ± 0.13
21 | GUGAAGCAAUAUUACGACUC | 0.243 ± 0.26 | -0.398 ± 0.28

Row | Sequence | self-splicing fitness (ln) (30 °C) | self-splicing fitness (ln) (37 °C)
22 | UCAGAGCAAUAUUACGCAGU | -0.644 ± 0.22 | -1.83 ± 0.41
23 | AGUAAGCAAUAUUACGAGCC | -0.632 ± 0.16 | -0.472 ± 0.17
24 | CAUAAGCAAUAUUACGGGCU | – | -2.73 ± 0.25
25 | GUUCAGCAAUAUUACGUAAG | -0.609 ± 0.061 | 0.5 ± 0.083
26 | GAAUAGCAAUAUUACGAGGC | -3.58 ± 0.38 | -2.2 ± 0.3
27 | CCUUAGCAAUAUUACGCUAC | -2.32 ± 0.27 | -2.26 ± 0.27
28 | UGGCAGCAAUAUUACGAAUA | -1.36 ± 0.12 | -0.17 ± 0.13
29 | GCGCAGCAAUAUUACGAACA | -1.64 ± 0.12 | -1.32 ± 0.097
30 | CGGGAGCAAUAUUACGAUCA | – | -1.75 ± 0.43
31 | CAAGAGCAAUAUUACGGUCG | -0.431 ± 0.05 | -0.728 ± 0.065
32 | UUCGAGCAAUAUUACGUUCU | -1.47 ± 0.15 | -0.345 ± 0.16
33 | UUAAAGCAAUAUUACGCGAA | -0.169 ± 0.15 | 0.0649 ± 0.18
34 | UAACAGCAAUAUUACGCUGG | -3.29 ± 0.17 | -2.42 ± 0.21
35 | AUUUAGCAAUAUUACGAGAA | -2.09 ± 0.32 | -1.2 ± 0.28
36 | UAACAGCAAUAUUACGUGAU | -2.4 ± 0.12 | -1.7 ± 0.17
37 | CUGGAGCAAUAUUACGUUGG | -2.89 ± 0.14 | -1.86 ± 0.15
38 | CCUGAGCAAUAUUACGAAGG | -3.87 ± 0.3 | -2.36 ± 0.32
39 | ACGCAGCAAUAUUACGUACG | -2.93 ± 0.15 | -0.983 ± 0.13
40 | CAUCAGCAAUAUUACGGCCU | -3.29 ± 0.16 | -2.15 ± 0.16
41 | CAGUAGCAAUAUUACGGUCA | – | -1.71 ± 0.28
42 | GUAAAGCAAUAUUACGCUCG | -0.0287 ± 0.1 | 0.709 ± 0.13

Row | Sequence | self-splicing fitness (ln) (30 °C) | self-splicing fitness (ln) (37 °C)
43 | CACCAGCAAUAUUACGCAGG | -3.09 ± 0.1 | -1.64 ± 0.1
44 | AGCGAGCAAUAUUACGUGAC | -3.4 ± 0.28 | –
45 | AUUCAGCAAUAUUACGACCC | 0.119 ± 0.42 | –
46 | AUGAAGCAAUAUUACGGUAC | -1.71 ± 0.14 | -0.139 ± 0.13
47 | AAGCAGCAAUAUUACGAGUA | -2.87 ± 0.19 | -2.08 ± 0.14
48 | CAAAAGCAAUAUUACGUUUC | -3.1 ± 0.28 | -2.76 ± 0.2
49 | UACGAGCAAUAUUACGUUGG | – | -2.22 ± 0.26
50 | ACUCAGCAAUAUUACGUGCG | -0.485 ± 0.063 | -0.526 ± 0.078
51 | GUCUAGCAAUAUUACGACAA | -2.6 ± 0.23 | -1.56 ± 0.26
52 | ACCCAGCAAUAUUACGCACA | -1.56 ± 0.081 | -0.306 ± 0.11
53 | CUUAAGCAAUAUUACGUCGC | – | -1.65 ± 0.33
54 | GUUAAGCAAUAUUACGUGGG | -2.87 ± 0.13 | -2.65 ± 0.17
55 | AAUGAGCAAUAUUACGCUGA | -3.08 ± 0.38 | -2.12 ± 0.24
56 | ACUUAGCAAUAUUACGUUAG | -2.09 ± 0.09 | -1.5 ± 0.12
57 | UAAUAGCAAUAUUACGCUGA | -2.81 ± 0.28 | -1.23 ± 0.15
58 | CCCUAGCAAUAUUACGCCCA | -3.12 ± 0.25 | -3.76 ± 0.42
59 | AUACAGCAAUAUUACGCCAC | -3.08 ± 0.24 | -3.12 ± 0.32
60 | CGUCAGCAAUAUUACGGUCU | -0.849 ± 0.079 | -0.828 ± 0.1
61 | AACGAGCAAUAUUACGGUGG | -3.68 ± 0.32 | -2.05 ± 0.34
62 | GGACAGCAAUAUUACGAGUA | -2.92 ± 0.15 | -1.79 ± 0.13
63 | AUCAAGCAAUAUUACGAUAU | -1.21 ± 0.065 | -0.753 ± 0.092
